Measured values: patent US20260078341A1, “TREATMENT OF CANCER USING CHIMERIC ANTIGEN RECEPTOR” (Novartis AG, priority 2014, published 2026)

Biological target: Folate receptor alpha on cells (SKOV3, A1847, T47D; low levels on 293T and IOSE6) (human) (UniProt P15328)
Assay: cell-based or functional assay

Folate receptor alpha on cells (SKOV3, A1847, T47D; low levels on 293T and IOSE6) (human), sequence (P15328 25-234, stated change not applied): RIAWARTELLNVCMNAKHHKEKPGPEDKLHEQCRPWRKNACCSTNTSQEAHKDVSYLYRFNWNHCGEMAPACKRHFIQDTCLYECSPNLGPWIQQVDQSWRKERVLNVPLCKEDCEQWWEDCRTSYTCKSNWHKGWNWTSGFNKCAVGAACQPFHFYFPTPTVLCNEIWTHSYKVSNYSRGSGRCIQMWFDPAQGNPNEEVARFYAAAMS

## MOv19-27z CAR (murine anti-human FRA MOv19 CAR)
  frequency of T cells with surface CAR before exposure to SKOV3 tumor cells: 65 % of T cells
  frequency of T cells with surface CAR five hours after exposure to SKOV3 tumor cells: 1 % of T cells
